# Data taken from US9889181B2, “Bacteriophage lysin and antibiotic combinations against gram positive bacteria” (priority 2012, dated 2018).
# Read-outs that look alike come from different tables or passages of the source.
# B1: PlySs2: bacteriophage lysin derived from Streptococcus suis, amino acid sequence of FIG. 29 (SEQ ID NO: 1) (protein, listed as Streptococcus suis)
# chain: MTTVNEALNNVRAQVGSGVSVGNGECYALASWYERMISPDATVGLGAGVGWVSGAIGDTISAKNIGSSYNWQANGWTVSTSGPFKAGQIVTLGATPGNPYGHVVIVEAVDGDRLTILEQNYGGKRYPVRNYYSAASYRQQVVHYITPPGTVAQSAPNLAGSRSYRETGTMTVTVDALNVRRAPNTSGEIVAVYKRGESFDYDTVIIDVNGYVWVSYIGGSGKRNYVATGATKDGKRFGNAWGTFK
# What was measured:
# VRSA = test: MIC, broth microdilution (CLSI M07-A9)
# [1] = test system: Staphylococcus lugdiensis; test: MIC, broth microdilution (CLSI M07-A9); details: Staphylococcus lugdiensis (10)
# DRSA = test: MIC, broth microdilution (CLSI M07-A9)
# MRSA strain MW2 = test: Murine bacteremia, low challenge model; assay type: in vivo, BALB/c mice; details: single dose at 4 hours; 1.25 mg/kg PlySs2, 2 mg/kg daptomycin
# Listeria monocytogenes = test: MIC, broth microdilution (CLSI M07-A9); details: Listeria monocytogenes (12)
# VISA = test: MIC, broth microdilution (CLSI M07-A9); set-up: MIC 50% / MIC 90% / MIC Range: unit not given beside the values
# [2] = test system: MRSA strain MW2 and MSSA strain ATCC 29213; assay type: cell-based, Staphylococcus aureus; details: consistently across 1.25 to 15% surfactant
# [3] = test system: MRSA strain MW2 (also strains 738, 832); assay type: in vivo, BALB/c mice; details: 10^9 CFU, dosing at 2 hours, PlySs2 5.25 mg/kg
# MRSA strains = test: Time kill assay, PlySs2 and antibiotic alone or in combination; assay type: cell-based, Staphylococcus aureus; details: ½ MIC of PlySs2 or ¼ MIC of vancomycin alone
# Lactococcus spp. = test: MIC, human gut bacteria; assay type: cell-based; details: N 3
# [4] = test system: Staphylococcus epidermidis; test: MIC, broth microdilution (CLSI M07-A9); details: Staphylococcus epidermidis (11)
# Streptococcus mutans = test: MIC, broth microdilution (CLSI M07-A9); details: Streptococcus mutans (12)
# [5] = test system: Streptococcus agalactiae, Group B; test: MIC, broth microdilution (CLSI M07-A9); details: Group B (51)
# Enterococcus faecalis = test: MIC, broth microdilution (CLSI M07-A9); details: Enterococcus faecalis (17)
# [6] = Vancomycin-intermediate (31) Staphylococcus aureus
# [7] = FIG. 27B, daptomycin 50 mg/kg once daily
# [8] = FIG. 27E, vancomycin 110 mg/kg twice daily
molecule,measurement,setting,value
B1,MIC90,VRSA; VRSA (n = 14),0.08 µM
same,MIC Range,VRSA; Vancomycin-resistant (14) Staphylococcus aureus,1 to 4 mg/mL
same,MIC 50%,[1],8 µg/mL
same,MIC 90%,[1],8 µg/mL
same,MIC Range,[1],8 µg/mL
same,MIC90,DRSA; DRSA (n = 8),0.15 µM
same,MIC Range,DRSA; Daptomycin-resistant (8) Staphylococcus aureus,2 to 4 mg/mL
same,survival at 72 hours,MRSA strain MW2,13%
same,MIC 50%,Listeria monocytogenes,128 µg/mL
same,MIC 90%,Listeria monocytogenes,512 µg/mL
same,MIC Range,Listeria monocytogenes,1 to 512 µg/mL
same,MIC90,VISA; VISA (n = 10),1.2 µM
same,MIC 50%,VISA; [6],8
same,MIC 90%,VISA; [6],32
same,MIC Range,VISA; [6],1-64
same,fold inhibition of MIC in the presence of Survanta,[2],8 fold
same,24 hour survival rate,[3]; [7],56%
same,72 hour survival rate,[3]; [7],18%
same,24 hour survival rate,[3]; [8],60%
same,72 hour survival rate,[3]; [8],3%
same,effect alone at sub-MIC doses up to 6 hours,MRSA strains,ineffective or poorly effective
same,CF-301 MIC,Lactococcus spp.,>512 µg/mL
same,MIC 50%,[4],128 µg/mL
same,MIC 90%,[4],512 µg/mL
same,MIC Range,[4],4 to 512 µg/mL
same,MIC 50%,Streptococcus mutans,64 µg/mL
same,MIC 90%,Streptococcus mutans,256 µg/mL
same,MIC Range,Streptococcus mutans,2 to 256 µg/mL
same,MIC 50%,[5],8 µg/mL
same,MIC 90%,[5],16 µg/mL
same,MIC Range,[5],1 to 64 µg/mL
same,MIC 50%,Enterococcus faecalis,>512 µg/mL
same,MIC 90%,Enterococcus faecalis,>512 µg/mL
